According to publication PMC8583203, “DisA Restrains the Processing and Cleavage of Reversed Replication Forks by the RuvAB-RecU Resolvasome”:

Columns and labels:
DisA [1] = target: T1, DisA (Bacillus subtilis, UniProt P37573 1-360); assay: EMSA; conditions: 10 mM Mg2+; 0.2% glutaraldehyde; 50 mM Tris-HCl pH 7.5, 50 mM NaCl, 1 mM DTT, 0.05 mg/mL BSA, 5% glycerol, 1 or 10 mM MgCl2 or 5 mM EDTA, 15 min 37 C, 0.2 nM DNA; 0.2% glutaraldehyde before 6% …
T1 sequence: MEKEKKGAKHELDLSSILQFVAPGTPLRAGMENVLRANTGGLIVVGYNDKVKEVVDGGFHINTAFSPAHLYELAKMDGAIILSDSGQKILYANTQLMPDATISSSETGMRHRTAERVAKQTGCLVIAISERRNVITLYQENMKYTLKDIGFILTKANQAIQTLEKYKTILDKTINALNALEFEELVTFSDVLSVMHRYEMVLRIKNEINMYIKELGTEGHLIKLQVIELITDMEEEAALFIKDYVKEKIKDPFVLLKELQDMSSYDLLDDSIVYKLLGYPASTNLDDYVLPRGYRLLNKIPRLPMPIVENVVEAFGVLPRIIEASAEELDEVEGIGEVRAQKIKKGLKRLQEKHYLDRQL

DisA [2] = target: T1, DisA; assay: EMSA; 10 mM Mg2+; 0.2% glutaraldehyde; 50 mM Tris-HCl pH 7.5, 50 mM NaCl, 1 mM DTT, 0.05 mg/mL BSA, 5% glycerol, 1 or 10 mM MgCl2 or 5 mM EDTA, 15 min 37 C, 0.2 nM DNA; 0.2% glutaraldehyde before 6%; conditions: protein: recombinant, chain copies: 8, label: 32P (5' by gamma-32P)
RecU = target: T2, RecU (Bacillus subtilis, UniProt P39792 1-206); assay: EMSA; 1 mM Mg2+; 50 mM Tris-HCl pH 7.5, 50 mM NaCl, 1 mM DTT, 0.05 mg/mL BSA, 5% glycerol, 1 or 10 mM MgCl2 or 5 mM EDTA, 15 min 37 C, 0.2 nM DNA; 0.2% glutaraldehyde before 6%; conditions: protein: recombinant; chain copies: 2; label: 32P (5' by gamma-32P); four-way junction
T2 sequence: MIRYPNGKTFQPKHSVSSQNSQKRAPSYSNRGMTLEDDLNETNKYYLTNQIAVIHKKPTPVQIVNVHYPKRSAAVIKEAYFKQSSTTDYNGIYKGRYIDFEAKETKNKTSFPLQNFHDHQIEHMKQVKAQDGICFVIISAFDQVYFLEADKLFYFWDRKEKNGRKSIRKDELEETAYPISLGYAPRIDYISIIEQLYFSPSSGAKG

RuvA = target: T3, RuvA (Bacillus subtilis, UniProt O05392 1-201); assay: as above; conditions: protein: recombinant; chain copies: 8; label: 32P (5' by gamma-32P); four-way junction
T3 sequence: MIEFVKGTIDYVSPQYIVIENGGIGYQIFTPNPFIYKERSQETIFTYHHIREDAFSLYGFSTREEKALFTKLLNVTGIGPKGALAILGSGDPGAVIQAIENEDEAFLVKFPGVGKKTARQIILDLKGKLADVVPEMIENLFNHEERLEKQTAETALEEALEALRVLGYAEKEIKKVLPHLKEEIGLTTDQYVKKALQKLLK

DisA [3] = target: T1, DisA; assay: EMSA; 10 mM Mg2+; 500 uM ATP; 50 mM Tris-HCl pH 7.5, 50 mM NaCl, 1 mM DTT, 0.05 mg/mL BSA, 5% glycerol, 1 or 10 mM MgCl2 or 5 mM EDTA, 15 min 37 C, 0.2 nM DNA; 0.2% glutaraldehyde before 6%; conditions: protein: recombinant; chain copies: 8; label: 32P (5' by gamma-32P); four-way junction
DisA;RuvA = target: T4, DisA;RuvA (Bacillus subtilis;Bacillus subtilis, UniProt P37573;O05392 1-360;1-201, |); assay: EMSA; 1 mM Mg2+; new R+A complex; 50 mM Tris-HCl pH 7.5, 50 mM NaCl, 1 mM DTT, 0.05 mg/mL BSA, 5% glycerol, 1 or 10 mM MgCl2 or 5 mM EDTA, 15 min 37 C, 0.2 nM DNA; 0.2% glutaraldehyde before 6%; conditions: protein: recombinant;recombinant; tags: ;; chain copies: 8;8; label: 32P (5' by gamma-32P); four-way junction
T4 sequence 1: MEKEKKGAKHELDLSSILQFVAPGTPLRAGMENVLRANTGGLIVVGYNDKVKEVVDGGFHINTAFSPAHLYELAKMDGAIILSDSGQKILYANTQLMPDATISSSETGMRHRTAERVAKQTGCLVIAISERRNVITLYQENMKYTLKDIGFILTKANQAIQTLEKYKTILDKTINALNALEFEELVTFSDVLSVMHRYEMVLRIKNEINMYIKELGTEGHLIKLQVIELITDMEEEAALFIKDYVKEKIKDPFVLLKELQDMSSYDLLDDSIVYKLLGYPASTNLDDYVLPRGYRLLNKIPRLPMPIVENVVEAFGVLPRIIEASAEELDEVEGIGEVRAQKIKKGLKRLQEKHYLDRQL
T4 sequence 2: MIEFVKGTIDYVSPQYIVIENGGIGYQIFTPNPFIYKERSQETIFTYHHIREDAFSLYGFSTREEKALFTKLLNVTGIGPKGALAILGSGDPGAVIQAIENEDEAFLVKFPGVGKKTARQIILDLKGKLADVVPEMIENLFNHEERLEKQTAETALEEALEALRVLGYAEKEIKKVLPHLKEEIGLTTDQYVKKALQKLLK

RuvA;RuvB = target: T5, RuvA;RuvB (Bacillus subtilis;Bacillus subtilis, UniProt O05392;O32055 1-201;1-334, |); assay: DNase I footprinting; 10 mM Mg2+; 5 mM ATPgS; ~40-nt footprint; 50 mM Tris-HCl pH 7.5, 50 mM NaCl, 1 mM DTT, 0.05 mg/mL BSA, 5% glycerol, 1 or 10 mM MgCl2 or 5 mM EDTA, 15 min 37 C, 0.2 nM DNA; 0.2% glutaraldehyde before 6%; conditions: protein: recombinant;native; tags: ;; chain copies: 8;12; label: 32P (5' by gamma-32P); four-way junction
T5 sequence 1: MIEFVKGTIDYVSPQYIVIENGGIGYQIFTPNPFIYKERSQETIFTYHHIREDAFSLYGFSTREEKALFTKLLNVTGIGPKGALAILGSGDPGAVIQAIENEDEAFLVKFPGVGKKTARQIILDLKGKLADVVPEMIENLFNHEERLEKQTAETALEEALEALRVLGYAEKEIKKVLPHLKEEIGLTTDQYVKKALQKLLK
T5 sequence 2: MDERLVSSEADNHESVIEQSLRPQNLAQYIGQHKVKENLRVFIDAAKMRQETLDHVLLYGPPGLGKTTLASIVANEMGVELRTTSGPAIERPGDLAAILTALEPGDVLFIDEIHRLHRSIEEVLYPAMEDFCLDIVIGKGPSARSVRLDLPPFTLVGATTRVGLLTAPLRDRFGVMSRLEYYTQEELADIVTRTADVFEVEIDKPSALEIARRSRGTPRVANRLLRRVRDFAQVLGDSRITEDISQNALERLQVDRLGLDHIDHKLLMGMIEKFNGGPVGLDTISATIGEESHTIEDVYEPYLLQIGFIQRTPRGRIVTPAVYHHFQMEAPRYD

DisA;RuvA;RuvB = target: T6, DisA;RuvA;RuvB (Bacillus subtilis;Bacillus …, UniProt P37573;O05392;O32055 1-360;1-201;1-334, ||); assay: DNase I footprinting; 10 mM Mg2+; 5 mM ATPgS; either order of addition; 50 mM Tris-HCl pH 7.5, 50 mM NaCl, 1 mM DTT, 0.05 mg/mL BSA, 5% glycerol, 1 or 10 mM MgCl2 or 5 mM EDTA, 15 min 37 C, 0.2 nM DNA; 0.2% glutaraldehyde before 6%; conditions: protein: recombinant;recombinant;native; tags: ;;; label: 32P (5' by gamma-32P); four-way junction
T6 sequence 1: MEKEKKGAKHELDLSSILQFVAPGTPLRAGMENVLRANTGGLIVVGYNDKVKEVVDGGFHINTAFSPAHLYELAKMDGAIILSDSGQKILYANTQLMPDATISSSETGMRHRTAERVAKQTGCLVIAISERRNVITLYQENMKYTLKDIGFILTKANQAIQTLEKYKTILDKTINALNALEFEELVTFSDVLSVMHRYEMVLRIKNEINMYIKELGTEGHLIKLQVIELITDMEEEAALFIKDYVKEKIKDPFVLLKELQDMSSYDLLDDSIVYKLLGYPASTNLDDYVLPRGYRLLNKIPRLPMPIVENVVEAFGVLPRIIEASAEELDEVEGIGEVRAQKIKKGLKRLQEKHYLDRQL
T6 sequence 2: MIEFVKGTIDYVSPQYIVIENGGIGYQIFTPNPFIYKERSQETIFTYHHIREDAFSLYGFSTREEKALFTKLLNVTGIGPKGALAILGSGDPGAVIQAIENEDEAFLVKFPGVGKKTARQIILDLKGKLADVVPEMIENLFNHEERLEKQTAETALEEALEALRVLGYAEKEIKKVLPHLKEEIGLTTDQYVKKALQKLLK
T6 sequence 3: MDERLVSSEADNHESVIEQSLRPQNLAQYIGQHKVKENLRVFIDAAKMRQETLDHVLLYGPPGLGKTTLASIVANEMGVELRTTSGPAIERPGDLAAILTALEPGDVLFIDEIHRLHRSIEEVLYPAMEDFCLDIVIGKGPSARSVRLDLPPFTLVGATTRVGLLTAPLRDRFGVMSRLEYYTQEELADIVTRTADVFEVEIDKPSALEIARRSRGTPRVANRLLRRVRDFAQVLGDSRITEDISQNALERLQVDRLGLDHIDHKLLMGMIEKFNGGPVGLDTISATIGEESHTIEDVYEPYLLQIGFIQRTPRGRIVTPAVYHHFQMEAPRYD

DisA;RecU = target: T7, DisA;RecU (Bacillus subtilis;Bacillus subtilis, UniProt P37573;P39792 1-360;1-206, |); assay: DNase I footprinting; preformed at 1 mM Mg2+, then 10 mM Mg2+; coexistence judged likely; 50 mM Tris-HCl pH 7.5, 50 mM NaCl, 1 mM DTT, 0.05 mg/mL BSA, 5% glycerol, 1 or 10 mM MgCl2 or 5 mM EDTA, 15 min 37 C, 0.2 nM DNA; 0.2% glutaraldehyde before 6%; conditions: protein: recombinant;recombinant; tags: ;; chain copies: 8;2; label: 32P (5' by gamma-32P); four-way junction
T7 sequence 1: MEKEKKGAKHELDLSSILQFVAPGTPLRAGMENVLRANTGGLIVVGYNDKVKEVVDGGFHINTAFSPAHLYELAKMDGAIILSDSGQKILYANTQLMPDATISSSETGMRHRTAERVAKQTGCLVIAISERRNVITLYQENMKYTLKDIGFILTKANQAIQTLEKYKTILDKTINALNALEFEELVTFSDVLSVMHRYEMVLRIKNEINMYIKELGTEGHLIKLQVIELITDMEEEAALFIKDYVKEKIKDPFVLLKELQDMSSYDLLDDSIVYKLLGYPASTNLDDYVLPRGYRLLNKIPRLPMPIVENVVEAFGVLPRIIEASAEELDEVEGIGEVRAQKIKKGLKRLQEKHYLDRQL
T7 sequence 2: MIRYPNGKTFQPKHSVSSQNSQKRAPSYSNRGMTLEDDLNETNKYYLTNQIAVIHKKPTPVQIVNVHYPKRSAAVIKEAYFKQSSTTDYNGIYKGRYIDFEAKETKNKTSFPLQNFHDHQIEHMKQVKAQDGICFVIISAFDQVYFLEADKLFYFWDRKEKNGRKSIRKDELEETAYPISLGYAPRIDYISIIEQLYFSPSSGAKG

Molecule: ssDNA (oligonucleotide not stated)
- Kd (DisA [1]): 3.3 nM

B1: flayed DNA (170/173) (structured_DNA)
DNA 1: AGACGCTGCCGAATTCTGGCTTGGATCTGATGCTGTCTAGAGGCCTCCACTATGAAATCG
DNA 2: AGCTCATAGATCGATAGTCTCTAGACAGCATCAGATCCAAGCCAGAATTCGGCAGCGTCT
- Kd (DisA [2]; fork 1:2, unpaired 3' end of 170 and 5' end of 173): 3.2 ± 0.2 nM

B2: dsDNA (80-bp) (dsDNA)
DNA 1: CGCAGCGACAGGAACCTCGAGGAATTCAACCACCGCTCAACTCAACTGCAGTCTGACTCGAGGTTCCTGTCGCTTGCG
DNA 2: CGCAAGCGACAGGAACCTCGAGTCTAGACTGCAGTTGAGTTGAGCGGTGGTTGAATTCCTCGAGTTCCTGTCGCTTGCG
- Kd (DisA [2]; duplex, printed strands not exactly complementary (small deletions/insertion)): 2.6 ± 0.3 nM

B3: HJ-J3 DNA (fixed Holliday junction) (structured_DNA)
DNA 1: CGCAAGCGACAGGAACCTCGAGAAGCTTCCGGTAGCAGCCTGAGCGGTGGTTGAATTCCTCGAGGTTCCTGTCGCTTGCG
DNA 2: CGCAGCGACAGGAACCTCGAGGAATTCAACCACCGCTCAACTCAACTGCAGTCTGACTCGAGGTTCCTGTCGCTTGCG
DNA 3: CGCAAGCGACAGGAACCTCGAGTCTAGACTGCAGTTGAGTCCTTGCTAGGACGGATCCCTCAGGTTCCTGTCGCTTGCG
DNA 4: CGCAAGCGACAGGAACCTCGAGGGATCCGTCCTAGCAAGGGGCTGCTACCGGAAGCTTCTCGAGGTTCCTGTCGCTTGCG
- Kd (RecU): 0.6 ± 0.2 nM
- Kd (RuvA): 10 ± 2 nM
- Kd (DisA [3]): 5.5 ± 0.3 nM
- binding result (DisA;RuvA): binds
- Kd (DisA [2]; four-way junction): 3 ± 0.5 nM
- binding result (RuvA;RuvB): binds
- binding result (DisA;RuvA;RuvB): binds
- binding result (DisA;RecU): binds
